According to US12473560 (FLAGSHIP PIONEERING INNOVATIONS VI, dated 2025):
Read-outs that look alike come from different tables or passages of the source.

Tests used:
[1] = target: T1, SARS-CoV-2 Spike protein receptor-binding domain (RBD) (SARS-CoV-2, UniProt P0DTC2 319-527); experiment: BLI (Octet), IgG1 captured on anti-human Fc sensors, RBD in solution; as to Req: test concentration or dose not given here; as to Response: test concentration or dose not given here; as to kobs: test concentration or dose not given here
[2] = target: T1, SARS-CoV-2 Spike protein …; experiment: BLI (Octet), IgG captured on anti-human Fc sensors, RBD in solution
[3] = target: T1, SARS-CoV-2 Spike protein …; experiment: BLI (Octet Red96e), IgG captured on anti-human Fc sensors, RBD in solution
[4] = target: T1, SARS-CoV-2 Spike protein …
[5] = target: SARS-CoV-2 Spike as carried on rVSV-SARS-CoV-2 pseudovirus and authentic WT virus (SARS-CoV-2, UniProt P0DTC2 14-1273); experiment: cell-based or functional assay

| Binder | Kd [1] | Req [1] | Response [1] | kobs [1] | koff [1] | kon [1] | Kd [2] | Kd [3] | koff [3] | kon [3] | Kd [4] | Neutralization (ng/mL), Authentic Virus IC50 [5] | Neutralization (ng/mL), Authentic Virus IC80 [5] | Neutralization (ng/mL), Pseudovirus IC50 [5] | Neutralization (ng/mL), Pseudovirus IC80 [5] | Neutralization (ng/mL), Pseudovirus IC90 [5] |
| --- | --- | --- | --- | --- | --- | --- | --- | --- | --- | --- | --- | --- | --- | --- | --- | --- |
| AB-10 full-length IgG1 (humanized) (antibody, V domains shown) VH: QVQLVQSGAEVKKPGASVKVSCKASGYTFTSYWMHWVRQAPGQGLEWMGAIYPGNGDTNYAQKFQGRVTMTADTSISTAYMELSRLRSDDTAVYYCTREGIPQLLNTLDVWGQGTLVTVSS VL: DIQMTQSPSSLSASVGDRVTITCRASQEISGYLNWYQQKPGKAPKRLIYAASSLQSGVPSRFSGSGSGTDFTLTISSLQPEDFATYYCQQYLSYPWTFGQGTKVEIK | 0.0254 µM | 0.102 nm shift | 0.114 nm shift | 0.0151 s⁻¹ | 0.00306 s⁻¹ | 121000 M⁻¹ s⁻¹ |  |  |  |  |  |  |  |  |  |  |
| AB-12 full-length IgG1 (humanized) (antibody, V domains shown) VH: EVQLVQSGAEVKKPGESLKISCKASGYTFTTYWMHWVRQMPGKGLEWMGAIYPGNSDTRYSPSFQGQVTLSVDKSITTAYLQWNSLKASDTAMYFCTREGIPQLLRTLDYWGQGTLVTVSS VL: DIQMTQSPSSLSASVGDRVTITCRASQGISGYLSWLQQKPEKAPKRLIYAASTLQSGVPSRFSGSGSGTDFTLTISSLQPEDFATYYCQQYLSYPWTFGQGTKLEIK | 0.0324 µM | 0.135 nm shift | 0.145 nm shift | 0.0149 s⁻¹ | 0.00366 s⁻¹ | 113000 M⁻¹ s⁻¹ |  |  |  |  |  |  |  |  |  |  |
| AB-11 full-length IgG1 (humanized) (antibody, V domains shown) VH: EVQLVQSGAEVKKSGESLKISCKASGYTFTTYWMHWVRQMPGKGLEWMGAIYPGNSDTQYSPSFQGQVTLSADKSISTAYLQWSSLKASDTAMYFCTREGIPQLLRTLDYWGQGTLVTVSS VL: EIVLTQSPGTLSLSPGERATLSCRASQEISGYLAWLQQKPGQAPRRLIYAASSLATGIPDRFSGSGSGTDFTLTISRLEPEDFAVYYCLQYLSYPWTFGQGTKVEIK | 0.0327 µM | 0.326 nm shift | 0.319 nm shift | 0.0104 s⁻¹ | 0.00255 s⁻¹ | 78000 M⁻¹ s⁻¹ |  |  |  |  |  |  |  |  |  |  |
| AB-1 full-length IgG1 (antibody, V domains shown) VH: EVQLEESGTVLARPGASVKMSCKASGYTFTTYWMHWIKQRPGQGLEWIGAIYPGNSDTQYNQKFKDKAKLTAVKSTSSAYMELSSLTNEDSAVYFCTREGIPQLLRTLDYWGQGTSVTVSS VL: DILMTQSPSSLSASLGERVSLTCRASQEISGYLSWLQEKPDGTIKRLIYAASTLDSGVPKRFSGSRSGSDYSLTISSLESEDFADYYCLQYLSYPWTFGGGTKLEIK | 0.0159 µM | 0.388 nm shift | 0.364 nm shift | 0.00924 s⁻¹ | 0.00127 s⁻¹ | 79700 M⁻¹ s⁻¹ | 0.039 µM | 0.039 µM | 0.0024 s⁻¹ | 62000 M⁻¹ s⁻¹ | 0.0342 µM | 78 ng/mL | 543 ng/mL | 0.0782 ng/mL | 2.6 ng/mL | 9.56 ng/mL |
| AB-2 full-length IgG1 (antibody, V domains shown) VH: EVQLEESGTVLARPGASVKMSCKASGYTFTTYWMHWIKQRPGQGLEWIGAIYPGNGDTNYNQKFKDKAKLTAVKSTSSAYMELSSLTNEDSAVYFCTREGIPQLLRTLDYWGQGTSVTVSS VL: DILMTQSPSSLSASLGERVSLTCRASQEISGYLSWLQEKPDGTIKRLIYAASTLDSGVPKRFSGSRSGSDYSLTISSLESEDFADYYCLQYLSYPWTFGGGTKLEIK |  |  |  |  |  |  |  |  |  |  | 0.127 µM | 379 ng/mL | 3030 ng/mL | 9.65 ng/mL | 35.2 ng/mL | 760 ng/mL |
| AB-3 full-length IgG1 (antibody, V domains shown) VH: EVQLEESGTVLARPGASVKMSCKASGYTFTTYWMHWIKQRPGQGLEWIGAIYPGNGDTNYNQKFKDKAKLTAVKSTSSAYMELSSLTNEDSAVYFCTREGIPQKLRTLDVWGQGTSVTVSS VL: DILMTQSPSSLSASLGERVSLTCRASQEISGYLSWLQEKPDGTIKRLIYAASTLDSGVPKRFSGSRSGSDYSLTISSLESEDFADYYCLQYLSYPWTFGGGTKLEIK |  |  |  |  |  |  |  |  |  |  | 0.177 µM | 3550 ng/mL | 11100 ng/mL | 17.6 ng/mL | 110 ng/mL | 502 ng/mL |
| AB-7 full-length IgG1 (antibody, V domains shown) VH: EVQLEESGTVLARPGASVKMSCKASGYTFTSYWMHWIKQRPGQGLEWIGAIYPGNSDTNYNQKFKDKAKLTAVKSTSSAYMELSSLTNEDSAVYFCTREGIPQLLRSLDYWGQGTSVTVSS VL: DILMTQSPSSLSASLGERVSLTCRASQEISGYLSWLQEKPDGTIKRLIYAASTLDSGVPKRFSGSRSGSDYSLTISSLESEDFADYYCLQYLSYPWTFGGGTKLEIK |  |  |  |  |  |  |  |  |  |  | 0.386 µM |  |  | 24.6 ng/mL |  |  |
| AB-5 full-length IgG1 (antibody, V domains shown) VH: EVQLEESGTVLARPGASVKMSCKASGYTFTSYWMHWIKQRPGQGLEWIGAIYPGNGDTNYNQKFKDKAKLTAVKSTSSAYMELSSLTNEDSAVYFCTREGIPQLLNTLDVWGQGTSVTVSS VL: DILMTQSPSSLSASLGERVSLTCRASQEISGYLSWLQEKPDGTIKRLIYAASTLDSGVPKRFSGSRSGSDYSLTISSLESEDFADYYCQQYLSYPWTFGGGTKLEIK | 0.0413 µM | 0.318 nm shift | 0.315 nm shift | 0.0117 s⁻¹ | 0.00341 s⁻¹ | 82500 M⁻¹ s⁻¹ |  |  |  |  | 0.148 µM | 260 ng/mL | 2460 ng/mL | 8.25 ng/mL | 35.2 ng/mL | 71.1 ng/mL |
| AB-9 full-length IgG1 (antibody, V domains shown) VH: EVQLEESGTVLARPGASVKMSCKASGYTFTSYWMHWIKQRPGQGLEWIGAIYPGNSDTNYNQKFKDKAKLTAVTSTSSAYMELSSLTNEDSAVYFCTREGIPQLLRTLDYWGQGTSVTVSS VL: DILMTQSPSSLSASLGERVSLTCRASQEISGYLSWLQEKPDGTIKRLIYAASTLDSGVPKRFSGSRSGSDYSLTISSLESEDFADYYCLQYLSYPWTFGGGTKLEIK |  |  |  |  |  |  |  |  |  |  | 0.0988 µM | 100 ng/mL | 627 ng/mL | 0.824 ng/mL | 4.14 ng/mL | 9.95 ng/mL |
| AB-6 full-length IgG1 (antibody, V domains shown) VH: EVQLEESGTVLARPGASVKMSCKASGYTFTSYWMHWIKQRPGQGLEWIGAIYPGNSDTNYNQKFKDKAKLTAVKSTSSAYMELSSLTNEDSAVYFCTREGIPQLTRTLDYWGQGTSVTVSS VL: DILMTQSPSSLSASLGERVSLTCRASQEISGYLSWLQEKPDGTIKRLIYAASTLDSGVPKRFSGSRSGSDYSLTISSLESEDFADYYCLQYLSYPWTFGGGTKLEIK |  |  |  |  |  |  |  |  |  |  | 0.103 µM | 25000 ng/mL | 25000 ng/mL | 6.15 ng/mL | 27.2 ng/mL | 58.4 ng/mL |
| AB-4 full-length IgG1 (antibody, V domains shown) VH: EVQLEESGTVLARPGASVKMSCKASGYTFTTYWMHWIKQRPGQGLEWIGAIYPGNGDTNYNQKFKDKAKLTAVKSTSSAYMELSSLTNEDSAVYFCTREGIPQLLRTFDYWGQGTSVTVSS VL: DILMTQSPSSLSASLGERVSLTCRASQEIGGYLSWLQEKPDGTIKRLIYAASTLDSGVPKRFSGSRSGSDYSLTISSLESEDFADYYCLQYLSYPWTFGGGTKLEIK |  |  |  |  |  |  |  |  |  |  | 0.151 µM |  |  |  |  |  |
| AB-8 full-length IgG1 (antibody, V domains shown) VH: EVQLEESGTVLARPGASVKMSCKASGYTFTTYWMHWIKQRPGQGLEWIGAIYPGNSDTIYNQKFKDKAKLTAVKSTSSAYMELSSLTNEDSAVYFCTREGIPQLLRTLDYWGQGTSVTVSS VL: DILMTQSPSSLSASLGERVSLTCRASQEISGYLSWLQEKPDGTIKRLIYAASTLDSGVPKRFSGSRSGSDYSLTISSLESEDFADYYCLQYLSYPWTFGGGTKLEIK |  |  |  |  |  |  |  |  |  |  | 0.104 µM | 222 ng/mL | 1600 ng/mL | 0.792 ng/mL | 3.34 ng/mL | 7.6 ng/mL |
